Results: the DeepSol protein solubility set

Experiment: soluble on expression in E. coli; label from the status in PepcDB or PDB records
With “MSLKIHCLKLKNKELNKEVAFYLTSIIRQALKNTEYKDQISSTVLPDIKIKLPIDSRGTPDWNYMERYRDREGHHHHHH” the “soluble on expression in E. coli” value was “soluble”. For “MSGSGMTPMLQATPEQARTLGAEEPIRPGQDRLAHAPADHPELPQPKIGILLANLGTPDNYDYWSMRRYLNEFLSDKRVIDYPAWKWQPLLQILILSKRPFSSGANYKLIWNHDKGESPLMTITKDQTAAIAAEIRSLYGNRVMVDFCMRYGNPSTESRVRAMVEAGCEKILFFPLYPHYAGATSATANDEFFRAMMKEKRQPAVRTVPEYYDNPLYIDALAQSVERAYAQLDHRPDVLVASYHGMPKRYLMAGDPYHCQCAKTSRLLRERLGWEKGAIDTTFQSVFGPEEWLKPYTVEHVAELARAGKKRIAVIAPAFSADCIETLEEINGEIREAFEEAGGEEFTYIPCLNDDEAHIRALVSVIEDNLAGWLARG”, the “soluble on expression in E. coli” value was “not soluble”. With “MSLARQNYHSEVEAAVNKQINIELYASYVYLSMSFYFDRDDVALPNIAKFFKEQSDEEREHATELMRVQNLRGGRVVLQDIQKPENDEWGTALKAFEAALALEKFNNESLLKLHSTAGNHNDAHLTDFIEEKYLDEQVKSINEFARMVANLKRVGPGVGEYVFDKEHFSD” the “soluble on expression in E. coli” value was “soluble”. For “MSYVAEKKKIANVLSNRYASAELTELWSPEAKILLERQLWIAVMKAQKNLGVDIPTEAISAYEAVIDRIDLDSIAQREKITRHDVKARIEEFNALAGYEHIHKGMTSRDLTENVEQLQIYRSLEMMRNKSVSVAAAIAQHAAQYQSLVMAGRSHNVAAQATTLGKRFASAAEEILVAIDRVEDLLSRYPLRGIKGPMGTAQDMLDLVGGDESKLAALETQIADHLGIARVFDSVGQVYPRSLDFDAVSALVQLGAGPSSLAHTIRLMAGNETVTEGFKEGQVGSSAMPHKMNARSCERVGGLQVILRGYLTMVADLSGQQWNEGDVFCSVIRRVALPDAFFALDGMYETFLTVLAEFGAFPAMIDRELERYLPFLATTRILMAAVRVGVGRETAHEVIKENAVAVALNMRENGGEQDLIDRLAADERLPMTREQLDEALADRHAFIGAAESQVARVVDRVNDLVRRYPAAAQYTPGDIL”, the “soluble on expression in E. coli” value was “not soluble”. For “ANKMALLIDGPNMLRKEFNVDLDKVRDALEQFGDIVVGRVYLNQYASDKLIEAIANQGFEPRISAGDVDVEMAVEGTELIFNKNIDTIVYMTRDADFLPAIRKAKERGKQIIVVGAEPGFSTAIQNIADHVIRVEEDFE”, the “soluble on expression in E. coli” value was “not soluble”. With “MDLKKLLPCGKVIVFRKGEIVKHQDDPIEDVLILLEGTLKTEHVSENGKTLEIDEIKPVQIIASGFIFSSEPRFPVNVVAGENSKILSIPKEVFLDLLMKDRELLLFFLKDVSEHFRVVSEKLFFLTTKTLREKLMNFLVRHMNEKRELTLPVTLEELSRLFGCARPALSRVFQELEREGYIEKHGRRIKVLKNPFEHDRI” the “soluble on expression in E. coli” value was “not soluble”. With “MGSDKIHHHHHHMLQQYHTKLKGTLALTDSYLTEKALQKEKGLYKFIWVRQGSITVEIDHQEMVLSKDDVISLTHLQHLEFKSIDGEYMTLLFNSNFYCIYGNDHEVSCSGFLFNGSSHLVRFTLNEEERRQLDQITEAMENEFTVSDSLQEEMLRILLKRFIIQCTRIARQRLDITREKESGFEIVRQYYNLVDEHYRTKKQVQDYADMLHKSPKTLSNIFSTCKLPSPLRVIHERVEAEAKRLLLYSNKSAKEIADILGFEDQASFSRFFKNMTGQSAVQFRNTEVGKN” the “soluble on expression in E. coli” value was “not soluble”. In the case of “MGSDKIHHHHHHMIPTIRLHSQQLINPVFNNPKDLVSWMGGIQAQDYTMSKWAIGIRLKAGNLQTVNEALAKGDILRIHVMRPTWHYVAAEDIRWMLKLSSRRIITANDSFAKSRGQDISVDIYNKANRLLEKALAGHNHLTKQEIDNIFKEGGLETNERLSNRFLIHAEAEGLICSGADKNNKITFALLDERVPPIQELHKEEALAILARKYFRSHSPASLKDFVWWSGLSVTEARQGIAAIEQELLTDRFLAQKLYVHQSYKEEKTTDILHILPSYDEYLISYKDRTDVLNKEYQHKAFNSFGIFRPVILYNGQIVGNWNKVIQKQTTHIEMNWFKKNTKIKRELLSLAERKYLTFFSEL”, the “soluble on expression in E. coli” value was “not soluble”. For “MKISVLVPTLGTREKEIRRLLETLEKQSYKDFEIIFVTQDNHEIVKDIIYKYSNLDIKQIEMSVKGLSRARNRGLEQASGEIVVLSDDDCWYPANAFEIVVNAFKKRQCAKIVLSQIFDPEKNIPYKNYTSDEEYVRNKLQLMSKSSIEVAFKKDLVMNKKFDERLGLGSEFVCGEEVDFLLSNYEKNAIFYIPEVTVYHKKKENGSSNKQIIAKGAIYGKNFNIFICVLVLLRDLMLKKENNFKYFFEGYNEYFKRTN”, the “soluble on expression in E. coli” value was “not soluble”. With “MSLSEADTSNAKLADFFAKKGNEPLSEIEMEGVLALMQKSRGVADESSFLGNSSRLLGDISNANASQVLRTGNISTSSALNVPNFKPSTDESRNINAKEVENSTIVSTPLKRKNFDYSSIRSPYRTVIYRFDDSNKKKISSVFDKPESSSQEVDETPKPSNSKPLSNTASALVSLLSDKDAAKESIKPMANPYTSHLTALRKSREDLPSINDKITVPKRRQRSETEDKEEAKITSSNGEAQEDTNIPEGIASRKNEEAQDSFTKYKPMRSSSLRDSVSLAHTESNNEKQMNSPKFVPAPLDKNETKETAKSDLTLTSSDKQSESKPSFSFPVNSTTKSTFMGTKKESTSPAVNSQAVKNVSNNETKEIKPQVHECIYDFGNPTSSGFKKTDIDDTLVSKYRGQFVFEGHHHHHH” the “soluble on expression in E. coli” value was “soluble”. With “MATAFTHSGKFHADDVFSAALLLYLNPEITITRGNRVPEDFDGIVFDIGRGRYDHHQKDSRVRENGIAYAAFGLLWEELGSEILGEELAQKFDEAFVQPLDNNDNTGEKNELASLIGNFNPTWDAEGSNDEAFFQAVSVAGMILENKFDRYRGNERADKRVEEIYERHMQAFHDREKHSEDAKILILPEFVPCQKFLSETPVAFVIFPSNRGGYCIQPQKKEYSMNYKCSFPSEWLGLENEELQEVTGLKTAGFCHKGGFLMTTGELADAVQACKISMEQFREKPVIVSFGGDTEYDELLHQIPKLQAAEIIHIDIQPLPEVEIQGIYAEVSMEKQEWKARIKEQVKQILKYKPEAVFVGENLFVAYPIVHALRKKHIPVLVPAEKDGQKLLIRIPSGSLEHHHHHH” the “soluble on expression in E. coli” value was “soluble”. With “MIKVRVPDFSDKKFSDRWRYCVGTGRLGLALQKEYIETLKYVKENIDFKYIRGHGLLCDDVGIYREDVVGDEVKPFYNFTYIDRIFDSFLEIGIRPFVEIGFMPKKLASGTQTVFYWEGNVTPPKDYEKWSDLVKAVLHHFISRYGIEEVLKWPFEIWNEPNLKEFWKDADEKEYFKLYKVTAKAIKEVNENLKVGGPAICGGADYWIEDFLNFCYEENVPVDFVSRHAYTSKQGEYTPHLIYQEIMPSEYMLNEFKTVREIIKNSHFPNLPFHITEYNTSYSPQNPVHDTPFNAAYIARILSEGGDYVDSFSYWTFSDVFEERDVPRSQFHGGFGLVALNMIPKPTFYTFKFFNAMGEEMLYRDEHMLVTRRDDGSVALIAWNEVMDKTENPDEDYEVEIPVRFRDVFIKRQLIDEEHGNPWGTWIHMGRPRYPSKEQVNTLREVAKPEIMTSQPVANDGYLNLKFKLGKNAVVLYELTERIDESSTYIGLDDSKINGY” the “soluble on expression in E. coli” value was “soluble”. In the case of “MIEQFNFDIRLIFAILNGKVSAAINRKLYRNFRQNGLEISPEQWTVLIFLWEKDGVTQQELCNATFKDKPSMTRLIDNMERQHLVVRISDKKDRRTNLIHLTKDGKELEEKARIIAGQTLKEALHGITLEELSIGQEVLKKVFYNTKD”, the “soluble on expression in E. coli” value was “not soluble”. For “MAMHPRKDWYELTRATNWTPSYVTEEQLFPERMSGHMGIPLEKWESYDEPYKTSYPEYVSIQREKDAGAYSVKAALERAKIYENSDPGWISTLKSHYGAIAVGEYAAVTGEGRMARFSKAPGNRNMATFGMMDELRHGQLQLFFPHEYCKKDRQFDWAWRAYHSNEWAAIAAKHFFDDIITGRDAISVAIMLTFSFETGFTNMQFLGLAADAAEAGDYTFANLISSIQTDESRHAQQGGPALQLLIENGKREEAQKKVDMAIWRAWRLFAVLTGPVMDYYTPLEDRSQSFKEFMYEWIIGQFERSLIDLGLDKPWYWDLFLKDIDELHHSYHMGVWYWRTTAWWNPAAGVTPEERDWLEEKYPGWNKRWGRCWDVITENVLNDRMDLVSPETLPSVCNMSQIPLVGVPGDDWNIEVFSLEHNGRLYHFGSEVDRWVFQQDPVQYQNHMNIVDRFLAGQIQPMTLEGALKYMGFQSIEEMGKDAHDFAWADKCKPAMKKSA”, the “soluble on expression in E. coli” value was “soluble”. With “MSLHQRILSEVEGHILSGDWPPGYRIPFEHELTEQYGCSRMTVNKALSELVKRGLIERRRKSGSYVSFPQVQSAVMEIHDVKREVQSLGLDYAYRLGERAVRKMRAGDEGRIDLPVSSRLLDVTCRHFAGGRVFCLEERVINLSAVPEAETETFETAAPGSWLLGKVPWSTAEHRIRAVAASRPTAQALEIAVGAACLVIERRTWSGGVPVTSVLLTYPGDRHELVAEFAPSAPA” the “soluble on expression in E. coli” value was “not soluble”. With “MGSDKIHHHHHHMRRVSIYELDPGMIVARAIFNSEERVLLHAGVELNEKYIHGLQKAGVMSVYIRDELFDESDAVSDIISEKTRLKAIRTLKESFNLLEKKHQLNLHAVKNTVDEIIDEIIANPNTLVSLTDIRSFDDYTYAHSVNVGVLSIMSGVSLNYERSQLKELGVGALLHDIGKIKIDKNILNKPDDLSPEEFTEIKQHSKAGFDILRQHSGLSLLSAHIAFQHHERWDGQGYPRQLSGEEIHEYARIVAVADVYDALVADRPYRPAYSVTQAISILKRMTGLFLDPQCVKAFLNNIAVYPLGCLLELNTGELGAVIDINRKTPAQPVVRVLYDRNWRLLTPYELDLSKNSALVVKNVLSERQIKELKKNL” the “soluble on expression in E. coli” value was “not soluble”. In the case of “GMGKEIEIERKTLVSKETFKRLISQLHIGEGDFKLQRNHYFETDDFQLKKQSSALRIREKEAIFTFTLKQPHPAGLLETNQTLSKQEAKLALESAHFPSGEVMDALRDLSIPISQLKHIGTLSTSRAEISYEQGILCLDHSSYLGIEDYEIEFEGTSEEHATVTFQEILKTFSISQVPTENKIQRFFSKKEKN”, the “soluble on expression in E. coli” value was “soluble”. For “MSLAAKVVPTLQQLAWQQMELTAFLHFGINTFTDSEWGDGKEDPALFNPVELDARQWVRILHEAGFRMVILTAKHHDGFCLWPTATTRHSVASSPWREGKGDVVKEVRAACEEYGMKFGIYLSPWDRNAECYGDSHRYNRFFVSQLTELLTHYGEVHEVWFDGANGEGPNGKRQEYDWETFYDTIRRLQPQAVMAIMGDDVRWVGNERGLGRTTEWSATVLTPGIYSRSKTERNRLGIRENSPDLGSREVLKEAGEIFWYPSEVDVSIRPGWFYHAAEDKKVKSLDKLVDIYFQSVGYNSVLLLNVPPDRRGLIHEADALRLKEWADYLGRAFAHDRVVDSARYAVVQGHAVEEYALESKTHINILMLQEDITKGQRTEAFTVEAWVDGAWQEIGRGTTIGYKRLLRIPAVETDRIRVRIEQCRLPVNLCRVAVYYAEGHHHHHH”, the “soluble on expression in E. coli” value was “soluble”. For “APPGPPASGPCADLQSAINAVTGGPIAFGNDGASLIPADYEILNRVADKLKACPDARVTINGYTDNTGSEGINIPLSAQRAKIVADYLVARGVAGDHIATVGLGSVNPIASNATPEGRAKNRRVEIVVN”, the “soluble on expression in E. coli” value was “soluble”. With “MPPAGQDDLDFLKYAMESYVADVNADIGKTTIVFTLREKAGALAETLKLFQAHDVNLSHIESRPSKTHEGCYEVLVEFAEAEDHRKIEGVIEHFQQKAEKKVLVQDWNTKNKQNKDSVPWFPQKINDIDQFANRILSYGAELDADHPGFKDMTYRERRKFFADIAFNFKHGDKIPTITYTDEEIATWRTVYNELTVMYPKNACQEFNYIFPLLQQNCGFGPDRIPQLQDVSDFLKDCTGYTIRPVAGLLSSRDFLAGLAFRVFHSTQYIRHHSAPKYTPEPDICHELLGHVPLFADVEFAQFSQEIGLASLGAPDDVIEKLATLYWFTIEFGICQQDGEKKAYGAGLLSSFGELQYALSDKPEVVDFDPAVCCVTKYPITEYQPKYFLAESFASAKNKLKSWAATINRPFQIRYNAYTQRVEILDKVAALQRLARDIRSDISTLEEALGKVNNLKMK” the “soluble on expression in E. coli” value was “not soluble”.
